# ± gives the standard error. Fewer inactive variants are shown than the library holds.
# B1: glmS ribozyme (parent)
# chain: AUAAAAGCGCCAGAACUACAGAAAUGUAGUUGACGAGGAGGAGGUUUAUCGAAUUUUCGGCGGAUGCCUCCAAA
# Key:
# Details in all cases: with glucosamine-6-phosphate
# glucosamine-6-phosphate [1] = variants of: B1; experiment: self-cleavage kobs at 160 uM GlcN6P; higher = faster cleavage; RNA array
# Procedure, shortened: (§1)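 Barcoded ribozyme variants, transcribed in situ by E. coli RNA polymerase on sequenced MiSeq chips, were followed via a hybridised Cy3 probe at 37 °C. Glucosamine-6-phosphate ranged from 40 μM to 10 mM in HEPES/KCl/Mg(OAc)2 buffer. kobs came from decay fits to per-tile medians, and kcat and KM from weighted Michaelis–Menten fits.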
# glucosamine-6-phosphate [2] = variants of: B1; experiment: self-cleavage kobs at 640 uM GlcN6P; higher = faster cleavage; RNA array
# Procedure, shortened: as §1
# glucosamine-6-phosphate [3] = variants of: B1; experiment: self-cleavage kobs at 2500 uM GlcN6P; higher = faster cleavage; RNA array
# Procedure, shortened: as §1
# glucosamine-6-phosphate [4] = variants of: B1; experiment: self-cleavage kobs at 10000 uM GlcN6P; higher = faster cleavage; RNA array
# Procedure, shortened: as §1
Variant,self-cleavage kobs at 160 uM GlcN6P (glucosamine-6-phosphate [1]),self-cleavage kobs at 640 uM GlcN6P (glucosamine-6-phosphate [2]),self-cleavage kobs at 2500 uM GlcN6P (glucosamine-6-phosphate [3]),self-cleavage kobs at 10000 uM GlcN6P (glucosamine-6-phosphate [4])
C50U C61A,9.85e-05 ± 4.8e-05 s⁻¹,2.67e-05 ± 1.1e-05 s⁻¹,3.11e-05 ± 1e-05 s⁻¹,
C8U U55A,< 1e-05 s⁻¹,< 1e-05 s⁻¹,< 1e-05 s⁻¹,
G29U A52G C61G C68U U69A,4.87e-05 ± 1.6e-05 s⁻¹,3.32e-05 ± 1.6e-05 s⁻¹,,
G9A G41A,< 1e-05 s⁻¹,< 1e-05 s⁻¹,< 1e-05 s⁻¹,< 1e-05 s⁻¹
U54G C58G C67G,0.000136 ± 3.4e-05 s⁻¹,0.000215 ± 7.1e-05 s⁻¹,8.44e-05 ± 3.2e-05 s⁻¹,
C10U G29U U57C C67U U69G,6.16e-05 ± 1.7e-05 s⁻¹,8.17e-05 ± 1.9e-05 s⁻¹,6.3e-05 ± 2e-05 s⁻¹,
G7C A14G C61U,< 1e-05 s⁻¹,,,
G43U G59U G60A,< 1e-05 s⁻¹,,< 1e-05 s⁻¹,
A33G A39C,< 1e-05 s⁻¹,< 1e-05 s⁻¹,< 1e-05 s⁻¹,< 1e-05 s⁻¹
C34U G37C,< 1e-05 s⁻¹,,,< 1e-05 s⁻¹
G9U A12G,< 1e-05 s⁻¹,< 1e-05 s⁻¹,< 1e-05 s⁻¹,< 1e-05 s⁻¹
C34G A53U C68U,< 1e-05 s⁻¹,,< 1e-05 s⁻¹,
C11A A12U,7.68e-05 ± 1.8e-05 s⁻¹,0.000339 ± 6e-05 s⁻¹,0.000539 ± 7.7e-05 s⁻¹,0.00156 ± 0.00028 s⁻¹
U30C C58U C67G C71A,0.000188 ± 5.3e-05 s⁻¹,0.000584 ± 0.00013 s⁻¹,0.000197 ± 4.3e-05 s⁻¹,
G37U C50U C58A G60C A64C,< 1e-05 s⁻¹,< 1e-05 s⁻¹,< 1e-05 s⁻¹,
A12U G29A C68U,0.000209 ± 5.1e-05 s⁻¹,0.000265 ± 6.4e-05 s⁻¹,0.0017 ± 0.0004 s⁻¹,0.00275 ± 0.0012 s⁻¹
C8A C16A U47C C58G,< 1e-05 s⁻¹,< 1e-05 s⁻¹,,
G9U C10U C67G,< 1e-05 s⁻¹,< 1e-05 s⁻¹,< 1e-05 s⁻¹,
C10G G13U A15C,< 1e-05 s⁻¹,< 1e-05 s⁻¹,,
A53U G62U A64U,< 1e-05 s⁻¹,< 1e-05 s⁻¹,< 1e-05 s⁻¹,
G7C C61A,< 1e-05 s⁻¹,< 1e-05 s⁻¹,,
G9C C34A,< 1e-05 s⁻¹,< 1e-05 s⁻¹,< 1e-05 s⁻¹,
G66A C67A C70U,0.000193 ± 4.7e-05 s⁻¹,0.000467 ± 0.0001 s⁻¹,0.000861 ± 0.0002 s⁻¹,
C61G U65A,< 1e-05 s⁻¹,< 1e-05 s⁻¹,< 1e-05 s⁻¹,< 1e-05 s⁻¹
G7A U31C G60U,< 1e-05 s⁻¹,,< 1e-05 s⁻¹,

Variant,self-cleavage kobs at 160 uM GlcN6P (glucosamine-6-phosphate [1]),self-cleavage kobs at 640 uM GlcN6P (glucosamine-6-phosphate [2]),self-cleavage kobs at 2500 uM GlcN6P (glucosamine-6-phosphate [3]),self-cleavage kobs at 10000 uM GlcN6P (glucosamine-6-phosphate [4])
G13U C50G G59A,0.0002 ± 7.6e-05 s⁻¹,,,
A42U U49A,< 1e-05 s⁻¹,< 1e-05 s⁻¹,< 1e-05 s⁻¹,< 1e-05 s⁻¹
G38U A42U U56G,< 1e-05 s⁻¹,< 1e-05 s⁻¹,,< 1e-05 s⁻¹
U31A A42C C70G,< 1e-05 s⁻¹,< 1e-05 s⁻¹,,
A48C C61G,< 1e-05 s⁻¹,< 1e-05 s⁻¹,< 1e-05 s⁻¹,< 1e-05 s⁻¹
A14U A15G G35C,< 1e-05 s⁻¹,,< 1e-05 s⁻¹,< 1e-05 s⁻¹
G9U C58G G63U,< 1e-05 s⁻¹,,< 1e-05 s⁻¹,< 1e-05 s⁻¹
A36U U54G,< 1e-05 s⁻¹,,,
G35U A36G A42G U55C,< 1e-05 s⁻¹,,< 1e-05 s⁻¹,
A12G G59C G63C C67A,< 1e-05 s⁻¹,< 1e-05 s⁻¹,< 1e-05 s⁻¹,
A6C C10A,< 1e-05 s⁻¹,< 1e-05 s⁻¹,< 1e-05 s⁻¹,< 1e-05 s⁻¹
G9U C19A,< 1e-05 s⁻¹,,,
A42U G44C A52C,< 1e-05 s⁻¹,< 1e-05 s⁻¹,,
A12G A15G G29A G32C G37U,< 1e-05 s⁻¹,,,
A6G G13U G29C C50G,0.000248 ± 5.8e-05 s⁻¹,0.00012 ± 4.1e-05 s⁻¹,0.000163 ± 4.4e-05 s⁻¹,
G7U A12C U54A C58A C70G,< 1e-05 s⁻¹,,< 1e-05 s⁻¹,
C10U G62C,< 1e-05 s⁻¹,,< 1e-05 s⁻¹,< 1e-05 s⁻¹
G9U A48U,< 1e-05 s⁻¹,,< 1e-05 s⁻¹,< 1e-05 s⁻¹
G7U C61U,< 1e-05 s⁻¹,< 1e-05 s⁻¹,,< 1e-05 s⁻¹
G29A U65A C70U,7.19e-05 ± 3e-05 s⁻¹,8.13e-05 ± 1.7e-05 s⁻¹,0.000148 ± 3.6e-05 s⁻¹,
G38U C58U G63U,< 1e-05 s⁻¹,,,
G13A G51A C70A,6.55e-05 ± 2.4e-05 s⁻¹,,,
C11G A12U G13U C58U C68G,7.71e-05 ± 2.9e-05 s⁻¹,0.000363 ± 0.00016 s⁻¹,,
C34A C67G C68A,6.53e-05 ± 1.9e-05 s⁻¹,6.33e-05 ± 2e-05 s⁻¹,0.000284 ± 8.7e-05 s⁻¹,
A15G C16G A33C U49G A53U,< 1e-05 s⁻¹,< 1e-05 s⁻¹,,

Variant,self-cleavage kobs at 160 uM GlcN6P (glucosamine-6-phosphate [1]),self-cleavage kobs at 640 uM GlcN6P (glucosamine-6-phosphate [2]),self-cleavage kobs at 2500 uM GlcN6P (glucosamine-6-phosphate [3]),self-cleavage kobs at 10000 uM GlcN6P (glucosamine-6-phosphate [4])
G21U C71G,0.000226 ± 5.1e-05 s⁻¹,0.000218 ± 3.9e-05 s⁻¹,0.000294 ± 5.9e-05 s⁻¹,
C8A A15U A36C A52G,< 1e-05 s⁻¹,,,
C50U C67G,0.000148 ± 6.3e-05 s⁻¹,2.88e-05 ± 1.2e-05 s⁻¹,2.44e-05 ± 1.1e-05 s⁻¹,
G41U G63A C71U,< 1e-05 s⁻¹,,,
A12U U30A U45A A53U G62C,< 1e-05 s⁻¹,,< 1e-05 s⁻¹,
G32A A52U G63C,< 1e-05 s⁻¹,< 1e-05 s⁻¹,< 1e-05 s⁻¹,
C11U U31C A39U A52C A64G,< 1e-05 s⁻¹,,< 1e-05 s⁻¹,
G51U U56C C70G,< 1e-05 s⁻¹,,,< 1e-05 s⁻¹
G66U C68U C70U,7.05e-05 ± 2.3e-05 s⁻¹,,0.000104 ± 2.7e-05 s⁻¹,
A48C U69A,< 1e-05 s⁻¹,< 1e-05 s⁻¹,,
U31G G35A C67A,< 1e-05 s⁻¹,< 1e-05 s⁻¹,,
U30A G41C U49A,< 1e-05 s⁻¹,< 1e-05 s⁻¹,< 1e-05 s⁻¹,< 1e-05 s⁻¹
C10U C34U G38C A39U,< 1e-05 s⁻¹,,,
G37U A48C C68U,< 1e-05 s⁻¹,< 1e-05 s⁻¹,,
A52U U57A C68U,8.55e-05 ± 2.1e-05 s⁻¹,0.000196 ± 5.5e-05 s⁻¹,0.000613 ± 0.00014 s⁻¹,
C16G U30A C58U G59A G60U C67G,< 1e-05 s⁻¹,,,
G35A A42C,< 1e-05 s⁻¹,< 1e-05 s⁻¹,,< 1e-05 s⁻¹
A12C C16G C70U,0.000215 ± 8.1e-05 s⁻¹,0.000259 ± 9.1e-05 s⁻¹,0.00151 ± 0.00044 s⁻¹,
G7U G13U A14U A48G U54A,< 1e-05 s⁻¹,< 1e-05 s⁻¹,< 1e-05 s⁻¹,
U47G C50U G63C,< 1e-05 s⁻¹,< 1e-05 s⁻¹,,
C16G G62C,< 1e-05 s⁻¹,< 1e-05 s⁻¹,< 1e-05 s⁻¹,
A36C G38A G44C C67U C68G,< 1e-05 s⁻¹,< 1e-05 s⁻¹,< 1e-05 s⁻¹,
C8A G44C C68A C71G,< 1e-05 s⁻¹,,,
G9A A48U,< 1e-05 s⁻¹,< 1e-05 s⁻¹,< 1e-05 s⁻¹,
C11U A14U A64C,< 1e-05 s⁻¹,,,

Variant,self-cleavage kobs at 160 uM GlcN6P (glucosamine-6-phosphate [1]),self-cleavage kobs at 640 uM GlcN6P (glucosamine-6-phosphate [2]),self-cleavage kobs at 2500 uM GlcN6P (glucosamine-6-phosphate [3]),self-cleavage kobs at 10000 uM GlcN6P (glucosamine-6-phosphate [4])
C10A G35C G51U,< 1e-05 s⁻¹,< 1e-05 s⁻¹,< 1e-05 s⁻¹,
A14U U55A U69A,0.000101 ± 2.7e-05 s⁻¹,,8.95e-05 ± 1.1e-05 s⁻¹,4.58e-05 ± 2e-05 s⁻¹
G9U U31A C71U,< 1e-05 s⁻¹,< 1e-05 s⁻¹,< 1e-05 s⁻¹,
C10A U30A G35U G43U,< 1e-05 s⁻¹,,,
G43C C50A C58U,< 1e-05 s⁻¹,< 1e-05 s⁻¹,< 1e-05 s⁻¹,
C8G A12C A36C G59A,< 1e-05 s⁻¹,,< 1e-05 s⁻¹,
A39C U47A C50A U56C,< 1e-05 s⁻¹,,< 1e-05 s⁻¹,
G37U A42C C50U C68G,< 1e-05 s⁻¹,< 1e-05 s⁻¹,< 1e-05 s⁻¹,
A12C G35C,< 1e-05 s⁻¹,< 1e-05 s⁻¹,< 1e-05 s⁻¹,
G7A G32U G43C,< 1e-05 s⁻¹,< 1e-05 s⁻¹,,
G13A A53C C67G,< 1e-05 s⁻¹,< 1e-05 s⁻¹,,< 1e-05 s⁻¹
G13C A53U G59A C71U,< 1e-05 s⁻¹,,< 1e-05 s⁻¹,
A12U A42U G44U C67G,3.69e-05 ± 1.5e-05 s⁻¹,0.000122 ± 3.2e-05 s⁻¹,0.000326 ± 9.4e-05 s⁻¹,
A12U G60U C70G,< 1e-05 s⁻¹,,,
C10G A42G G44C A53G G60U,< 1e-05 s⁻¹,< 1e-05 s⁻¹,,
C11A G41U C58U,< 1e-05 s⁻¹,< 1e-05 s⁻¹,,
G9U C61U,< 1e-05 s⁻¹,< 1e-05 s⁻¹,,< 1e-05 s⁻¹
G9U A12C C67U,< 1e-05 s⁻¹,< 1e-05 s⁻¹,< 1e-05 s⁻¹,< 1e-05 s⁻¹
C10U C34G,< 1e-05 s⁻¹,< 1e-05 s⁻¹,< 1e-05 s⁻¹,< 1e-05 s⁻¹
G41A U47A G62C,< 1e-05 s⁻¹,< 1e-05 s⁻¹,< 1e-05 s⁻¹,
A36C U54C,< 1e-05 s⁻¹,,,< 1e-05 s⁻¹
C10G G43U C50A,< 1e-05 s⁻¹,,< 1e-05 s⁻¹,
G44A C61U,< 1e-05 s⁻¹,< 1e-05 s⁻¹,< 1e-05 s⁻¹,< 1e-05 s⁻¹
A33U U69G,5e-05 ± 2e-05 s⁻¹,0.000237 ± 6.3e-05 s⁻¹,,
